Source: US20250041387A1 (BEIJING STOMATOLOGICAL HOSPITAL CAPITAL MEDICAL UNIVERSITY, published 2025)

Molecular target: WD repeat domain 5 (WDR5), human, endogenous in human mesenchymal stem cells (human, UniProt P61964 2-334)
Assay: Co-IP with HA antibody, stem cells from apical papilla overexpressing HA-KDM6B
Procedure: On the next day, the cells were added with Protein A/G beads and rotated on a rotary shaker at 4° C. for 2 hours. […] All cells were incubated overnight to form a complex of protein-antibody-agarose bead. […] (2) Grouping: Input group (loading amount of 25 μg); antibody group (loading amount of 800 μg, 2 μg of antibody); IgG group (loading amount of 800 μg, 2 μg of antibody). Samples were diluted with lysate. […] (3) Preparation of protein A/G beads

- binding result: binds
B1: HA-KDM6B (full-length KDM6B with HA tag, overexpressed in stem cells from apical papilla) (enzyme)
chain: MHRAVDPPGARAAREAFALGGLSCAGAWSSCPPHPPPRSAWLPGGRCSASIGQPPLPAPLPPSHGSSSGHPSKPYYAPGAPTPRPLHGKLESLHGCVQALLREPAQPGLWEQLGQLYESEHDSEEATRCYHSALRYGGSFAELGPRIGRLQQAQLWNFHTGSCQHRAKVLPPLEQVWNLLHLEHKRNYGAKRGGPPVKRAAEPPVVQPVPPAALSGPSGEEGLSPGGKRRRGCNSEQTGLPPGLPLPPPPLPPPPPPPPPPPPPLPGLATSPPFQLTKPGLWSTLHGDAWGPERKGSAPPERQEQRHSLPHPYPYPAPAYTAHPPGHRLVPAAPPGPGPRPPGAESHGCLPATRPPGSDLRESRVQRSRMDSSVSPAATTACVPYAPSRPPGLPGTTTSSSSSSSSNTGLRGVEPNPGIPGADHYQTPALEVSHHGRLGPSAHSSRKPFLGAPAATPHLSLPPGPSSPPPPPCPRLLRPPPPPAWLKGPACRAAREDGEILEELFFGTEGPPRPAPPPLPHREGFLGPPASRFSVGTQDSHTPPTPPTPTTSSSNSNSGSHSSSPAGPVSFPPPPYLARSIDPLPRPPSPAQNPQDPPLVPLTLALPPAPPSSCHQNTSGSFRRPESPRPRVSFPKTPEVGPGPPPGPLSKAPQPVPPGVGELPARGPRLFDFPPTPLEDQFEEPAEFKILPDGLANIMKMLDESIRKEEEQQQHEAGVAPQPPLKEPFASLQSPFPTDTAPTTTAPAVAVTTTTTTTTTTTATQEEEKKPPPALPPPPPLAKFPPPSQPQPPPPPPPSPASLLKSLASVLEGQKYCYRGTGAAVSTRPGPLPTTQYSPGPPSGATALPPTSAAPSAQGSPQPSASSSSQFSTSGGPWARERRAGEEPVPGPMTPTQPPPPLSLPPARSESEVLEEISRACETLVERVGRSATDPADPVDTAEPADSGTERLLPPAQAKEEAGGVAAVSGSCKRRQKEHQKEHRRHRRACKDSVGRRPREGRAKAKAKVPKEKSRRVLGNLDLQSEEIQGREKSRPDLGGASKAKPPTAPAPPSAPAPSAQPTPPSASVPGKKAREEAPGPPGVSRADMLKLRSLSEGPPKELKIRLIKVESGDKETFIASEVEERRLRMADLTISHCAADVVRASRNAKVKGKFRESYLSPAQSVKPKINTEEKLPREKLNPPTPSIYLESKRDAFSPVLLQFCTDPRNPITVIRGLAGSLRLNLGLFSTKTLVEASGEHTVEVRTQVQQPSDENWDLTGTRQIWPCESSRSHTTIAKYAQYQASSFQESLQEEKESEDEESEEPDSTTGTPPSSAPDPKNHHIIKFGTNIDLSDAKRWKPQLQELLKLPAFMRVTSTGNMLSHVGHTILGMNTVQLYMKVPGSRTPGHQENNNFCSVNINIGPGDCEWFAVHEHYWETISAFCDRHGVDYLTGSWWPILDDLYASNIPVYRFVQRPGDLVWINAGTVHWVQATGWCNNIAWNVGPLTAYQYQLALERYEWNEVKNVKSIVPMIHVSWNVARTVKISDPDLFKMIKFCLLQSMKHCQVQRESLVRAGKKIAYQGRVKDEPAYYCNECDVEVFNILFVTSENGSRNTYLVHCEGCARRRSAGLQGVVVLEQYRTEELAQAYDAFTLAPASTSR
notes: whole, on cells; Full-length protein expressed inside human SCAPs and pulled down from lysate with HA antibody; also called PQCXIN-HA-KDM6B; SCAPs-HA-KDM6B; not shown: HA tag
